Starred links: 1 amine or outer side, 2 acyl side, 3 side chain; linkers in the order of their positions; H or OH if unused. Positions of bridges follow the written chain, without caps; N, C: chain ends. Non-standard residues stand in square brackets, D forms with d. Groups on a side chain read outwards from the residue. *: point of attachment. Glu(OMe) = COC(=O)CC[C@H](N[*:1])C(=O)[*:2]; C18 diacid = O=C(O)CCCCCCCCCCCCCCCCC(=O)*; Dip = N[C@H](C(=O)O)C(c1ccccc1)c1ccccc1; Palmitoyl = CCCCCCCCCCCCCCCC(=O)*; β3hF = N[C@H](CC(=O)O)Cc1ccccc1; Cha = N[C@@H](CC1CCCCC1)C(=O)O; Tle = CC(C)(C)[C@H](N)C(=O)O; hLeu = CC(C)CC[C@H](N)C(=O)O; 4Amb = NCc1ccc(C(=O)O)cc1; Isovaleryl = CC(C)CC(=O)*; Ac6c = NC1(C(=O)O)CCCCC1; Dap = NC[C@H](N)C(=O)O; AEEA = NCCOCCOCC(=O)O; Ahx = NCCCCCC(=O)O
T1: human ferroportin (SLC40A1) fused in frame with GFP, stably expressed in HEK293 cells (human, UniProt Q9NP59 1-571)
T1 sequence (looked up): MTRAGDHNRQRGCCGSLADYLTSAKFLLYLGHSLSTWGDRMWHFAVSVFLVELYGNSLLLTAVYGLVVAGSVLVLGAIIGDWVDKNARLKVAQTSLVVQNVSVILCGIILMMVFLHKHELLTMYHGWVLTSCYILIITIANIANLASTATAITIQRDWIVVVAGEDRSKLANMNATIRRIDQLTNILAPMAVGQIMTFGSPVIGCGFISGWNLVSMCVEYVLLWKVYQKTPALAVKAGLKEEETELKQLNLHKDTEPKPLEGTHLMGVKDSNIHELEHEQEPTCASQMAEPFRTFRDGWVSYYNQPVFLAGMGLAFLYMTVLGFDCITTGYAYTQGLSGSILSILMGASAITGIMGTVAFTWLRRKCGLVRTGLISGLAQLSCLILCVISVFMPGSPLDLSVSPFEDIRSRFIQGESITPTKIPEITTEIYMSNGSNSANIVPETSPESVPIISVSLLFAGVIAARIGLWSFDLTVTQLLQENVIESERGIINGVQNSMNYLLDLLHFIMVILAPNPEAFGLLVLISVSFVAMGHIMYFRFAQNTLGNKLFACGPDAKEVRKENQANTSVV


Biological target: T1, human ferroportin (SLC40A1) fused in …
Test: cell-based or functional assay

IC50: FPN internalisation [nM]	Binder
12.5	Isovaleryl-[Glu(OMe)]TH[Dip]PC[hLeu]K([AEEA-AEEA-Dap-C18 diacid])[β3hF][dK]C-NH2 (disulfide 6-11 (inferred)) [Seq. No. 515]
19.2	XXTHXPCIXXXC ([Isovaleric Acid]-[Glu(OMe)]-T-H-[Dpa]-P-C-I-[Lys(1PEG2_1PEG2_Dap_C18_Diacid)]-[Igl]-[(D)Lys]-C-NH2) [Seq. No. 522]
13.1	Isovaleryl-ETH[Dip]PC[4Amb]K([AEEA-AEEA-Ahx-C18 diacid])[β3hF][dK]C-NH2 (not fully specified (bridges); cysteine pairing not given here) [Seq. No. 550]
37.4	XXTHXPCIXXXC ([Isovaleric Acid]-[Glu(OMe)]-T-H-[Dpa]-P-C-I-[Lys(PEG12_DMG_N_2ae_Palm)]-[bhPhe]-[(D)Lys]-C-NH2) [Seq. No. 530]
13.2	XETHXPCIXXXC ([Isovaleric Acid]-E-T-H-[Dpa]-P-C-I-[Lys(1PEG2_1PEG2_IsoGlu_C18_Diacid)]-[bhPhe]-[(D)Lys(Carnitine)]-C-NH2) [Seq. No. 543]
50.8	XEXHXPCIXXXXC (not fully specified; [Isovaleric Acid]-E-[Dap]-H-[Dpa]-P-C-I-[(D)Lys]-[bhPhe]-[Lys(Ahx_Palm)]-[(D)Lys]-C-NH2) [Seq. No. 549]
24.2	XXTHXPCIXXXC ([Isovaleric Acid]-[Glu(OMe)]-T-H-[Dpa]-P-C-I-[Lys(1PEG2_1PEG2_Dap_C18_Diacid)]-[Hph]-[(D)Lys]-C-NH2) [Seq. No. 508]
19.9	XXTHXPCIXXXC ([Isovaleric Acid]-[Glu(OMe)]-T-H-[Dpa]-P-C-I-[Lys(PEG12_Dap_C18_Diacid)]-[bhPhe]-[(D)Lys]-C-NH2) [Seq. No. 520]
54.6	Isovaleryl-ETH[Dip]PCI[dK][β3hF]K([Ahx-Palmitoyl])[dR]C[dR]-NH2 (disulfide 6-12 (inferred)) [Seq. No. 474]
31	XETHXPCIXXXXC ([Isovaleric Acid]-E-T-H-[Dpa]-P-C-I-[(D)Lys]-[bhPhe]-[Lys(Ahx_DMG_N_2ae_Palm)]-[(D)Lys]-C-NH2) [Seq. No. 527]
246	XETYXPCIXXXC ([Isovaleric Acid]-E-T-Y-[Dpa]-P-C-I-[Lys(1PEG2_1PEG2_Dap_C18_Diacid)]-[bhPhe]-[(D)Lys]-C-NH2) [Seq. No. 477]
29.6	XXTHXPCIXXXC ([Isovaleric Acid]-[Glu(OMe)]-T-H-[Dpa]-P-C-I-[Lys(1PEG2_1PEG2_Dap_C18_Diacid)]-[Achc]-[(D)Lys]-C-NH2) [Seq. No. 507]
24.7	XXTHXPCIXXXC ([Isovaleric Acid]-[Glu(OMe)]-T-H-[Dpa]-P-C-I-[Lys(PEG12_PEG12_Dap_C18_Diacid)]-[bhPhe]-[(D)Lys]-C-NH2) [Seq. No. 519]
53.6	XEXHXPCIXXXC ([Isovaleric Acid]-E-[Dab]-H-[Dpa]-P-C-I-[Lys(1PEG2_1PEG2_Ahx_C18_Diacid)]-[bhPhe]-[(D)Lys]-C-NH2) [Seq. No. 546]
7.98	XETHXPCIXXXXC ([Isovaleric Acid]-E-T-H-[Dpa]-P-C-I-[(D)Lys]-[bhPhe]-[Lys(DMG_N_2ae_Palm)]-[(D)Lys]-C-NH2) [Seq. No. 525]
14.3	XXTXXPCIXXXC ([Isovaleric Acid]-[Glu(OMe)]-T-[4Pal]-[Dpa]-P-C-I-[Lys(1PEG2_1PEG2_Dap_C18_Diacid)]-[bhPhe]-[(D)Lys]-C-NH2) [Seq. No. 499]
1760	XETHXPCIXXXXC ([Isovaleric Acid]-E-T-H-[Dpa]-P-C-I-[Lys(Ac)]-[bhPhe]-[Lys(Ahx_Palm)]-[(D)Arg]-C-NH2) [Seq. No. 476]
37.4	Isovaleryl-[Glu(OMe)]TH[Dip]PC[Ac6c]K([AEEA-AEEA-Dap-C18 diacid])[β3hF][dK]C-NH2 (disulfide 6-11 (inferred)) [Seq. No. 512]
24.8	XEXHXPCIXXXC (not fully specified; [Isovaleric Acid]-E-[Dap]-H-[Dpa]-P-C-I-[Lys(1PEG2_1PEG2_Ahx_C18_Diacid)]-[bhPhe]-[(D)Lys]-C-NH2) [Seq. No. 547]
7.14	XXTHXPCIXXXC ([Isovaleric Acid]-[Glu(OMe)]-T-H-[Dpa]-P-C-I-[Lys(Ahx_DMG_N_2ae_Palm)]-[bhPhe]-[(D)Lys]-C-NH2) [Seq. No. 532]
142	XXTHXPCIXXXC ([Isovaleric Acid]-[(D)Glu]-T-H-[Dpa]-P-C-I-[Lys(1PEG2_1PEG2_Ahx_C18_Diacid)]-[bhPhe]-[(D)Lys(PEG11_OMe)]-C-NH2) [Seq. No. 540]
9.58	XETHXPCIXXXC ([Isovaleric Acid]-E-T-H-[Dpa]-P-C-I-[Lys(PEG12_Dap_C18_Diacid)]-[bhPhe]-[(D)Lys]-C-NH2) [Seq. No. 517]
13.6	Isovaleryl-[Glu(OMe)]TH[Dip]PC[Tle]K([AEEA-AEEA-Dap-C18 diacid])[β3hF][dK]C-NH2 (disulfide 6-11 (inferred)) [Seq. No. 514]
16.9	Isovaleryl-[Glu(OMe)]TH[Dip]PC[Cha]K([AEEA-AEEA-Dap-C18 diacid])[β3hF][dK]C-NH2 (disulfide 6-11 (inferred)) [Seq. No. 511]
9.02	XETHXPCIXXXC ([Isovaleric Acid]-E-T-H-[Dpa]-P-C-I-[N-MeLys(Ahx_Palm)]-[bhPhe]-[(D)Lys(Carnitine)]-C-NH2) [Seq. No. 542]
94.1	Isovaleryl-[Glu(OMe)]TH[Dip]PC[dR]K([AEEA-AEEA-Dap-C18 diacid])[β3hF][dK]C-NH2 (disulfide 6-11 (inferred)) [Seq. No. 536]
